Reference: the nanobody polyreactivity screen of Harvey et al. (2022)

assay: yeast display, Sf9 membrane polyspecificity reagent, FACS + sequencing; frameworks hold sequencing errors
Outline: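 Polyreactivity labels are assigned by the sorting gate from which each nanobody was recovered. The gates were low and high (top ~1%), set on anti-HA fluorescence for expression and streptavidin fluorescence for reagent binding. Before sorting, galactose-induced (36–48 hours) yeast display cells were stained for 1 hour at 4 °C with 10% biotinylated, detergent-solubilized Sf9 membrane reagent.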

Sequence	polyreactivity (PSR sort gate)
QVQLVESGGGLVQAGGSLRLSCAASGRIFPGNAMGWYRQAPGKERELVADITSGGSTNYADSVKGRFTISRDNAKNTVYLQMNSLKPEDTAVYYCAVRQIYQTSDHRLQYDYWGQGTQVTVSS	low polyreactivity
QVQLVESGGGLVQAGGSLRLSCAASGRIFPGYAMGWYRQAPGKERELVAAISERGGSTYYADSVKGRFTISRDNAKNTVYLQMNSLKPEDTAVYYCAAIWRGGYNYWGQGTQVTVSS	low polyreactivity
QVQLVESGGGLVQAGGSLRLSCAASGRIFPGYAMGWYRQAPGKERELVAAISGSGVRTYYADSVKGRFTISRDNAKNTVYLQMNSLKPEDTAVYYCAADSKIRTKLDYWGQGTQVTVSS	low polyreactivity
QVQLVESGGGLVQAGGSLRLSCAASGRIFPGYTMGWYRQAPGKEREFVAAISYSGGSTYADSVKGRFTISRDNAKNTVYLQMNSLKPEDTAVNYCAVVLQHWLDMYYWGQGTQVTVSS	low polyreactivity
QVQLVESGGGLVQAGGSLRLSCAASGRIFPGYTMGWYRQAPGKERELVAGISRSGGRTYYADSVKGRFTISRDNAKNTVYLQMNSLKPEDTAVYYCAADGYPGRRYTGMDYWGQGTQVTVSS	high polyreactivity
QVQLVESGGGLVQAGGSLRLSCAASGRIFPHNAMGWYRQAPGNERELVAAISSHGGSTYYAVSVKGRFTISRDNAKNTVYLQMNSLKPEDTAVYYCAKYRYFAGDGDYWGQGTQVTVSS	low polyreactivity
QVQLVESGGGLVQAGGSLRLSCAASGRIFPHYAIGWYRQAPGKERELVAAISTSGGSTYYADSVKGRFTISRDIAKNTVYLQLNCLKPEDTEVYYCAARGYQYGFYYLVIYDYWGQGTQVTVSS	low polyreactivity
QVQLVESGGGLVQAGGSLRLSCAASGRIFPKNTMGWYRQAPGKERELVAAINWNGGRTYYADSVKGRFTISRDNAKNTVYLQMNSLKPEDTAVYYCAKDGYWDFDYWGQGTQVTVSS	low polyreactivity
QVQLVESGGGLVQAGGSLRLSCAASGRIFPLYAMGWYRQAPGKERELVADISVTGTSTYYADSVKGRFTISRDNAKNTVYLQMNSLKPEDTAVYYCAADLWAYGPLWRWSRADYDYWGQGTQVTVSS	low polyreactivity
QVQLVESGGGLVQAGGSLRLSCAASGRIFPNYVMGWYRQAPGKERELVAAISRRGGRTYYADSVKGRFTISRDNAKNTVYLQMNSLKPEDTAVYYCARVPTRAEDVAGWTGMDYWGQGTQVTVSS	high polyreactivity
QVQLVESGGGLVQAGGSLRLSCAASGRIFPQNAMGWYRQAPGKERELVAVITGNGSTYYADSVKGRFTISRDNAKNTVYLQMNSLKPEDTAVYYCAARVSWPYHRGARDYWGQGTQVTVSS	low polyreactivity
QVQLVESGGGLVQAGGSLRLSCAASGRIFPRYAMGWYRQAPGKERELVARITRRGGITYYADSVKGRFTISRDNAKNTVYLQMNSLTPEDTAVYYCNVDYYRGGDFSYGYDYWGQGTQVTVSS	high polyreactivity
QVQLVESGGGLVQAGGSLRLSCAASGRIFPSNVMGWYRQAPGKERELVASISARGGSTYYADSVKGRFTISRDNAKNTGYLQMNSLKPEDTAVYYCHKRRSNGYSQHKLDYWGQGTQVTVSS	low polyreactivity
QVQLVESGGGLVQAGGSLRLSCAASGRIFPSYAMGWYRQAPGKERELVAAISRSGGRTYYADSVKGRFTISRDNAKNTVYLQMNSLKPEDTAVYYCYPYYIASTFDYWGQGTQVTVSS	high polyreactivity
QVQLVESGGGLVQAGGSLRLSCAASGRIFPSYAMGWYRQAPGKERELVAAISSSGGRTYYADSVKGRFTISRDNAKNTVYLQKNSLKPEDTAVYYCNARSPAYFYQWLYSFRYDYWGQGTQVTVSS	high polyreactivity
QVQLVESGGGLVQAGGSLRLSCAASGRIFPSYMGWYRQAPGKERELVARISNTGSTYYADSVKGRFTISRDNAKNTVYIQMNSLKPEDTAVYYCAAVYIFRVFSHPPYDYWGQGTQVTVSS	low polyreactivity

Sequence	polyreactivity (PSR sort gate)
QVQLVESGGGLVQAGGSLRLSCAASGRIFPTNAMGWYRQAPGKERELVAGISSSGGSTYYADSVKGRFTISRDNAKNTVYLQMNSLKPEDTAVYYCNAVGYQYLRVYYWGQGTQVTVSS	low polyreactivity
QVQLVESGGGLVQAGGSLRLSCAASGRIFPTNAMGWYRQPPGKEREFVAAITWRGGSTYYADSVKGRFTISRDNAKNTVYLQMNSLKPEDTAVYYCAAELDYFPGYDYWGQGTQVTLSS	low polyreactivity
QVQLVESGGGLVQAGGSLRLSCAASGRIFPTYAMGWYRQAPGKERELVAAITWRGGRTYYADSVKGRFTISRDNAKNTVYLQMNSLKPEDTAVYYCAAGWLTRSYEYDYWGQGTQVTVSS	high polyreactivity
QVQLVESGGGLVQAGGSLRLSCAASGRIFPVNALGWYRQAPGKEREFVAAISYSGVSTRYADSVKGRFTISRDKAKNTVYLQMNSLKPEDTAVYYCAARMSVREDYWGQGTQVNVSS	high polyreactivity
QVQLVESGGGLVQAGGSLRLSCAASGRIFPVNAMGWYRQAPGKERELVATISRGGNTYYADSVKGRFTISRDNAKNTVYLQMNSLKPEDTAVYYCNVDRGNPVPPSEYWGQGTQVTVSS	low polyreactivity
QVQLVESGGGLVQAGGSLRLSCAASGRIFPVYAMGWYRQAPGKERELVAAISRRGGSTYYADSVKGRFTISRDNAKNTVYLQMNSLKPEDTAVYYCAATAYYYWWWYGGDMDYWGQGTQVTLSS	high polyreactivity
QVQLVESGGGLVQAGGSLRLSCAASGRIFPWYAMGWYRQAPGKERELVAAISWSGGRTYYADSVKGRFTISRDNAKITVYLQMNSLKPEDTAVYYCNTGTSGRFLSFGNFDYWGQGTQVTVSS	high polyreactivity
QVQLVESGGGLVQAGGSLRLSCAASGRIFPYKAMGWYRPAPGKERELVAAITSSGGSTYYADSVKGRFTISRDNAKNTVYLQMNSLKPEDTAVYYCNKDIERYVRIYDSWGQGTQVTVSS	low polyreactivity
QVQLVESGGGLVQAGGSLRLSCAASGRIFPYNAMGWYRQAPGKERELVASITGSGGSTYYADSVKGRFTISRDKAKKTVYLQMNSLKPEDTAVYYCAVQGGYFYTWDGDYWGQGTQVTVSS	low polyreactivity
QVQLVESGGGLVQAGGSLRLSCAASGRIFPYNTMGLYRQAPGKERELVAAISRRGGSTYYADSVKGRFTISRDNAKNTVYLQMNSLKPEDTAVYYCNAVKPRDYGGLAYDYWGQGTQVTVSS	high polyreactivity
QVQLVESGGGLVQAGGSLRLSCAASGRIFPYNVMGWYRQAPGKERELVAAISWSGGRTYYADSVKGRFTISRDNAKKTVYLQMNSLKPEDTAVYYCNTRTLVAMGYWGQGTEVTVSS	high polyreactivity
QVQLVESGGGLVQAGGSLRLSCAASGRIFPYYAMGWYRQAPGKERELVAAINRGGSTNYADSVKGRFTISRDNAKNTVYLQMNSLKPEDTAVYYCAALSRTHGVSYDYWGQGTQVTVSS	high polyreactivity
QVQLVESGGGLVQAGGSLRLSCAASGRIFPYYAMGWYRQAPGKERELVAAISQSGGSTNYADSVKGRFTISRDNAKNTVYLQLNSLKPEDTAVYYCNVDVSRSWAQPYTYDYWGQGTQVTVSS	low polyreactivity
QVQLVESGGGLVQAGGSLRLSCAASGRIFPYYAMGWYRQAPGKERELVATITSGGSTYYADSVKGRFTISRDNAKNTVYLQMNSLKPEDTAVYYCAARYPSIYYYRYDYWGQGTQVTVSS	high polyreactivity
QVQLVESGGGLVQAGGSLRLSCAASGRIFPYYAMGWYRQAPGKEWELVAAISSSSGSTYYADTVKGRFTISRDNAKNTVYLQMNSLKPEDTAVYYCAARKSWRYNIWSRNAYEDWGQGTQVTVSS	high polyreactivity
